Experiment: yeast display, Sf9 membrane polyspecificity reagent, FACS + sequencing; frameworks hold sequencing errors
Outline: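 Galactose induction of a Saccharomyces cerevisiae BJ5465 synthetic nanobody display library ran 36–48 hours. The cells were then stained for 1 hour at 4 °C with 10% biotinylated, detergent-solubilized Sf9 membrane reagent, pulled down on streptavidin microbeads and FACS-sorted into low and high (top ~1%) gates on expression and reagent-binding fluorescence. Labels for polyreactivity follow the gate of origin.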

Sequence	polyreactivity (PSR sort gate)
QVQLVESGGGLVQAGGSLRLSCAASGSTFRAYAMRWYRQAPGKETELVAAISSSGGSTYYADSVKGRFTISRDNAKKTVYLQMNSLKPEDTAVYYCAARGWWSRYGYWGQGTQVTVSS	high polyreactivity
QVQLVESGGGLVQAGGSLRLSCAASGSTFRCYAMGWYRQAPGKERELVAAISRSGGSTYYADSVKGRFTISRDNAKNTVYLQMNSLKPEDTAVYYCNARSSKRSSRGYDYWGQGTQVTVSS	high polyreactivity
QVQLVESGGGLVQAGGSLRLSCAASGSTFRDNSMGWYRQAPGKERELVASITKRGTSTYYADSVKGRFTISRDNAKNNVYLHMNSLKPEETSVYYCAVRRYGKTAGYDYWGQGTQVTVSS	low polyreactivity
QVQLVESGGGLVQAGGSLRLSCAASGSTFREYAMGWYRQAPGKERELVAAISSGDSTNYADSVKGRFTISRDNAKNTVYLQMNSLKPEDTAVYYCAADAPGAAAVQNDYWGQGTQVTVSS	low polyreactivity
QVQLVESGGGLVQAGGSLRLSCAASGSTFRFNAMGWYRQAPGKERELVAAITGIGGITYYADSVKGRFTISRDNAKNTVYLQMNSLKPEDTAVYYCNAVAARYSVRNGYSTHYDYWGQGTQVTVSS	high polyreactivity
QVQLVESGGGLVQAGGSLRLSCAASGSTFRFNTMGWYRHAPGKDRELVAAITSGGSTYYADSVKGLFTISRDNAKNTVYLQMNSLKPEDTAVYYCAATWYIRGQCYYYWGQGTQVTVSS	high polyreactivity
QVQLVESGGGLVQAGGSLRLSCAASGSTFRFYAMGWYRPAPGKERELVAVIRSTGSTYYADSVKGRFTISRDNAKNTVYLQMNSLKPEDTAVYYCAAQNAWWSNGRSYDYWGQGTQVTVSS	low polyreactivity
QVQLVESGGGLVQAGGSLRLSCAASGSTFRFYAMGWYRQAPGKERELVAAISKSGGITYYADSVKGRFTISRAHAKNTVYLQMNSLKPEDTSVSYCATVGLLSNFYSRFNYWGQGTPVTVSS	high polyreactivity
QVQLVESGGGLVQAGGSLRLSCAASGSTFRFYAMGWYRQAPGKERELVAAITRSGGGTTYYADSVKGRFTISRDNAKNTVYLQMNSLKPEDTAVYYCAAYLSSLGRKYYYWGQGTQVTVSS	high polyreactivity
QVQLVESGGGLVQAGGSLRLSCAASGSTFRGNDMGWYRQAPGKERELVASIDWSGGSTYYADSVKGRFTISRDNAKNTVYLQMNSLKPEDTAVYYCAADTSYWYDYYIDYVGYYYWGQGTQVTVSS	high polyreactivity
QVQLVESGGGLVQAGGSLRLSCAASGSTFRGNTMGWYRQAPGKERELVAAISRRGGGTYYADSVKGRFTISRDNAKNTVYLQMNSLKPEDTAVYYCNKRARHTGDFVWGHGYWGQGTQVTVSS	low polyreactivity
QVQLVESGGGLVQAGGSLRLSCAASGSTFRGYAMGWYRLAPGKEREFVASISLSGGSTYYADSVKGRFTISRDNAKNTVDSQMNSRKPEDTAVYDGAARARGYGWRGDYWGQGTHVTVSS	low polyreactivity
QVQLVESGGGLVQAGGSLRLSCAASGSTFRGYAMGWYRQAPGKERDLVAAMSSNGDRTFYADSVKGRFTISRDNAKNTVYLQMNSLKPEDTAVYYCNAVYRGSWQLYGYWGLGTQVTVSS	high polyreactivity
QVQLVESGGGLVQAGGSLRLSCAASGSTFRHNAMGWYRDAPGTERELVATIRTSGGTTYYADSVKGRFTISRDNAKNTVYLQMNSLKPEDTAVYYCAAKYSLLRQYNRLDYWGQGTQVTVSS	low polyreactivity
QVQLVESGGGLVQAGGSLRLSCAASGSTFRHNAMGWYRQAPGKERELVATIRTSGGTTYYADSVKGRFTISRDNAKNTVYLQMNSLKQEDTAVYYCAAVSYLFLYQGYPIAYPMYYWGQGSQVTVSS	low polyreactivity
QVQLVESGGGLVQAGGSLRLSCAASGSTFRHYAMGWYRQAPGKESELVAAISSTGGSTHNADSVKGRFTISRDNAKNTVFLQLHSLKPEDTAVDYCAARRLYWGQGTQVTVSS	high polyreactivity
QVQLVESGGGLVQAGGSLRLSCAASGSTFRINAMGWYRQAPGKERELVAAITSGGSTKYADSVKGRFTISRDNAKNTVYLQMNSLKPEDTAVYYCNKQGYPYRYFAWYPGYNYWGQGTQVTVSS	low polyreactivity
QVQLVESGGGLVQAGGSLRLSCAASGSTFRIYAKGWYRQAPGKERELVAAITRGARTNYADSVKGRFTISRDNAKNTVYLQMNSLKPEDTAVYYCAADGWRWYQHNGFDYWVQGTQVTVSS	high polyreactivity
QVQLVESGGGLVQAGGSLRLSCAASGSTFRKYAMGWYRQAPGKEREFVAAITWSTGTTYYADSVKGRFTISRDNAKNTVYLQMNSLKPEDTAVYYCNAAFWAPQAPCYYYWGQGTQVTVSS	low polyreactivity
QVQLVESGGGLVQAGGSLRLSCAASGSTFRLNAMGRYRQAPGKERELVAAISRSTGTTHYADSVKGRFTISRDNAKNTVYLQMKSLKPEDTAVYYCATDRAKWHKNGDLGYWGQGTQVTVSS	low polyreactivity
QVQLVESGGGLVQAGGSLRLSCAASGSTFRLYAMGWYRQAPGKERELVAAIRSGGNTNYADSVKGRFTISRDNAKNTVYLQMNSLKPEDTAVYYCAATYGTGRRSKYGYWGQGTQVTVSS	high polyreactivity
QVQLVESGGGLVQAGGSLRLSCAASGSTFRNNAMGWYRQAPGKETELVAAISFSSGRTYYADSVKGRFTISRDYAKNTVYLQMNSLKPEDTAVYYCAALQYRRRPYGAVERYDYWGQGTQVTVSS	high polyreactivity

Sequence	polyreactivity (PSR sort gate)
QVQLVESGGGLVQAGGSLRLSCAASGSTFRPNAMGWYRQAPGKERELVAAISRSGVSTYYADSVKGRFTISRDNAKNTVYLQMNSLKPEDTAVYYCARRYTGRPVLRESWGQGTQVTVSS	low polyreactivity
QVQLVESGGGLVQAGGSLRLSCAASGSTFRPYAMGWYRQAPGTERELVAAISWSGGRTYYADSVKGRFTISRDNAKNNVYLQMNSLKPEDTAVYYCTRAGRQPKNTYDYWGQGTQVTVSS	high polyreactivity
QVQLVESGGGLVQAGGSLRLSCAASGSTFRQNALGWYRQAPGKERELVAAITYRVASTYYADSVKGRFTISRDNAKNTVYLQMNSLKPEDTAVYYCAAYKRRSNGRYWTYDYWGQGTQVTVSS	high polyreactivity
QVQLVESGGGLVQAGGSLRLSCAASGSTFRRNAMGWYRQAPGKERELVAAISRTAGSTYYADSVKGRFTISRDNAKNTVYLQMNSLKPEDTAVYYCNRRYVSTSGELDYWGQGTQVTVSS	high polyreactivity
QVQLVESGGGLVQAGGSLRLSCAASGSTFRRNVMGWYRQAPGKEREFVAAISYRTGSTYYADSVKGRFTISRDNAKNTVYLQMNSLKPEDTAVYYCAASSQWVGYYYWGQGTQVTVSS	high polyreactivity
QVQLVESGGGLVQAGGSLRLSCAASGSTFRRYAMGWSRQAPGKVRELVAAISRTGRTNYADSVKGRFTISRDNAKYTVYLQMNSLKPEDTAFDYCAAKSSTKQRKYYWGQGTQVTVSS	high polyreactivity
QVQLVESGGGLVQAGGSLRLSCAASGSTFRRYAMGWYRQAPGKERELVAAITSGGRTNYADSVKGRFTISRDNAKNTVYLQMNSLKPEDTAVYYCAARYIRGSYGMGYWGQGTQVTVSS	high polyreactivity
QVQLVESGGGLVQAGGSLRLSCAASGSTFRRYAMGWYRQAPGKERELVAGITSGGDTYYADSVKGRFTISRDNAKNTVYLQMNSLKPEDTALYYCARVRYGRMDYWGQGTQVTVSS	high polyreactivity
QVQLVESGGGLVQAGGSLRLSCAASGSTFRRYAMGWYRQAPGKERELVASISRSGGSTYYADSVKGRFTISRDNAKNTVYLQMNSLKPEDTAVYYCAKKPYKSAYDYSSAYDYWGQGTQVTVSS	high polyreactivity
QVQLVESGGGLVQAGGSLRLSCAASGSTFRRYAMGWYRQAPGKERELVASITYRGGSTYYADSVKGRFTISRDNAKNTVYLQMNSLKPEDTAVYYCAKKGVYGPLNEYWGQGTQVTVSS	high polyreactivity
QVQLVESGGGLVQAGGSLRLSCAASGSTFRRYAMGWYRQAPVKERELVAAITRGGITYYADSVKGRFTISRDNAKNTVYLQMNSLKPEDTAVYYCAATTFGPYALYPRYYYWGQGTQVTVSS	high polyreactivity
QVQLVESGGGLVQAGGSLRLSCAASGSTFRSNAMGWYRQAPGKERELVAAIRYSGARTYYADSVKGRFTISRDNAKNTVYLQMNSLKPEDTAVYYCAATLYTRTYSWMDYWGQGTQVTVSS	high polyreactivity
QVQLVESGGGLVQAGGSLRLSCAASGSTFRSNVMGWYRQAPGKAREFVAAITSSSATTYYADSVKGRFTISRDNAKNTVYLQMNSLKPEDTAVYYCAAGGRKAGPAGGQYYYWGQGTQVTVSS	low polyreactivity
QVQLVESGGGLVQAGGSLRLSCAASGSTFRSYAMGWYRPAPGTERELVAAISYSGDSTYYADSVTGRFTISRDIAKNTVFLQMKRLKPVDTAVYYCAALRDWDIQGEPWKRYGYWGQGTQVTVSS	low polyreactivity
QVQLVESGGGLVQAGGSLRLSCAASGSTFRSYAMGWYRQAPGKERELVAAITSGANTNYADSVKGRFTISRDNAKNTVDLQMNSLKPEDTAVYYCAKASYIIFRIEYRSGYDYWGQGTQVTVSS	low polyreactivity
QVQLVESGGGLVQAGGSLRLSCAASGSTFRSYAMGWYRQAPGKERELVAAITWRGGSTDYADSVKGRFTISRDNAKNTVYLQMNSLKPEDTAVYYCAAAIWGDYGAYDYWGQGTQVTVSS	low polyreactivity
QVQLVESGGGLVQAGGSLRLSCAASGSTFRTNGMGWYRQAPGKERELVAAITRGTSTNYADSVKGRFTISRDNAKNTVYLQMNSLKPEDTAVYYCAADVTGGRKYDYWGQGTQVTVSS	low polyreactivity
QVQLVESGGGLVQAGGSLRLSCAASGSTFRTYAKGWYRQAPGKERELVASITRRGGRTYYADSVKGRFTISRDNAKNTVYLQMYSLKPEDTAVYYCAAADQQYDYWGQGTQVTVTS	high polyreactivity
QVQLVESGGGLVQAGGSLRLSCAASGSTFRTYAMGWYRQAPGKERELVAAISVSGGRTYYADSVKGRFTISRDNAKKTVYLQMNSLKPEDTAVYYCAARQYRYELEYWGQGTQVTVSS	low polyreactivity
QVQLVESGGGLVQAGGSLRLSCAASGSTFRTYAMGWYRQAPGKERELVATITRTGGSTYYADSVKGRFTISRDNAKNTVYLQMNSLKPEDTAVYYCAARRSHQYRGPHFNYWGQGTLVTVSS	low polyreactivity
QVQLVESGGGLVQAGGSLRLSCAASGSTFRTYAMGWYRQAPGKERELVAVISASGGSTYYADSVKGRFTISRDNAKNTVYLQMNSLKPEDTAVYYCAVAYSRGRYYYWGQGTQVTVSS	high polyreactivity
